Results on one substance are retold here after patent publication US20030059769A1.

The experiment has as its target LS-Rg, chimeric protein of the extracellular domain of human L-selectin joined to the Fc domain of a human G2 immunoglobulin (human) (UniProt P14151). Kind of experiment: competition of unlabeled antibody against radiolabeled 2'-F RNA ligand LF1807 on purified LS-Rg.

Chain of LS-Rg, chimeric protein of the extracellular domain of human L-selectin joined to the Fc domain of a human G2 immunoglobulin (human) (P14151 39-332, stated change not applied): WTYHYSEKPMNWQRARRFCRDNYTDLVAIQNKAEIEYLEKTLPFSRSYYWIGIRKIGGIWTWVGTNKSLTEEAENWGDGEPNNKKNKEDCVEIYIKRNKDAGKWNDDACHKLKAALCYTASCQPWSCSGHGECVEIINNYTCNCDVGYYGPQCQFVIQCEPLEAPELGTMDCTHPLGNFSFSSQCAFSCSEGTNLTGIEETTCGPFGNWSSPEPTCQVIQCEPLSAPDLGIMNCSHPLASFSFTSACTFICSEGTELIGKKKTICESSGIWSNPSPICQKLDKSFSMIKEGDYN

Consider “DREG-56, L-selectin specific blocking monoclonal antibody”, for which the concentration for complete inhibition was 300 nM.
